This assay addresses T1, E. coli derived recombinant human BMP-2 (human, UniProt P12643 283-396).
T1 construct: Bone morphogenetic protein 2, human, recombinant from E. coli; also called bone morphogenetic protein 2
The assay is described as follows: SPR; ProteON XPR36, GLC chip; BMP-2 immobilised by amine coupling (1000-2000 RU), CV2 VWC1 proteins as analytes in six concentrations; 25 °C, HBST500 (10 mM HEPES pH 7.4, 500 mM NaCl, 0.005% Tween20); global Langmuir 1:1 fit, KD = koff/kon, or from dose-dependency of equilibrium binding for weak or fast binders; apparent KD. The settings on record: both partners purified. For orientation: SPR reads the build-up and loss of mass on a sensor chip optically.

T1 sequence (P12643 283-396): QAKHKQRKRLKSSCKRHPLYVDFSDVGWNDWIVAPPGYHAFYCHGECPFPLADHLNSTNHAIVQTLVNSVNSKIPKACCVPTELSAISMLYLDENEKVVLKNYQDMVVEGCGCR

B1: CV2 VWC1 C9A/C31A (domain or fragment)
chain: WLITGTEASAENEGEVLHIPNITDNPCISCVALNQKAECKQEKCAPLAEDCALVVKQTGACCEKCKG
modifications: Mature numbering = entity position minus 3 (C9A/C31A = C12A/C34A). Introduced N-terminal Trp kept; vector Gly-Ser left out. Remaining native disulfides, including Cys26-Cys60, Cys43-Cys61 and …
One may read the koff as a measure of how fast the partners let go of each other. B1: the Kd is at least 3.3 µM and the koff was at least 0.05 s⁻¹.

The values above are taken from PMC6270503, “The Clip-Segment of the von Willebrand Domain 1 of the BMP Modulator Protein Crossveinless 2 Is Preformed” (Molecules, 2013).
